Experimental findings from paper PMC11315935, “Multi-layered heterochromatin interaction as a switch for DIM2-mediated DNA methylation” (Nature Communications, 2024) are described below.

The subject of experiment [1] is (CTA)12/(TAG)12 36-mer DNA duplex. Put plainly: In vitro DNA methylation assay of DIM2 (WT or mutant). It is filed as biochemical. Also on record: DNA methylation activity: unit not given here. To be noted: for reduction of DNA methylation efficiency of DIM2 by mutation: vs WT DIM2.
The test system of a further experiment is HP1. The experiment in a line: Size-exclusion chromatography of DIM2-HP1 complex. The format is binding, Neurospora Crassa. To be noted: 1.0 µM DIM2 and/or 2.5 µM HP1, Superdex 200 increase 10/300 GL, pH 7.5. The procedure:
For size-exclusion chromatography analysis, 400 µL of the sample mixture containing 1.0 µM DIM2 and/or 2.5 µM HP1 was loaded onto Superdex 200 increase 10/300 GL column (GE Healthcare) and eluted at a flow rate of 0.5 mL/min, in the buffer containing 20 mM Tris-HCl (pH 7.5), 100 mM NaCl, 5% glycerol, and 5 mM DTT. The proteins in each fraction were then visualized by SDS-PAGE.
For orientation: Size exclusion chromatography separates by hydrodynamic size, large species first.

Experiment [2] deals with DNA duplex (Upper strand: 5’-ATTATTAATCTAAATTTA-3’). The experiment in a line: Electrophoretic mobility shift assay (EMSA). It is filed as binding. To be noted: 0.1 µM DNA duplex, 0, 0.2 or 0.4 µM DIM2, in presence of 0.8 µM H3K9me3 peptide, pH 8.0, 4 °C. As to the method:
Each 10-µL reaction mixture contained 0.1 µM DNA duplex (Upper strand: 5’-[…]-3’) mixed with 0, 0.2, or 0.4 µM DIM2, WT or mutant (W261A or W581A), and/or 0.8 µM H3K9me3 peptide in binding buffer containing 20 mM Tris-HCl (pH 8.0), 75 mM NaCl, 10% glycerol, 5 mM DTT, and 2% NP-40. Samples were resolved on a 5% w/v polyacrylamide gel (59:1 for acrylamide:bis-acrylamide) with the running buffer containing 1 × Tris-Glycine (pH 8.6) at 4 °C for 1 h. The gel was stained with SYBR™ Gold (Thermo Fisher Scientific) for 10 min and visualized by ChemiDoc Imaging System (Bio-Rad).
In general terms: In EMSA bound probe runs differently from free probe, usually more slowly.

Setting [3] is: Fig. 6d, H3_1-24K9me3 binding-associated mutants, 1.0 µM DIM2, 1.0 µM DNA duplex, 30 °C, 30 min, pH 8.0, replicate 1.
Where [4] appears, read: Fig. 6d, H3_1-24K9me3 binding-associated mutants, 1.0 µM DIM2, 1.0 µM DNA duplex, 30 °C, 30 min, pH 8.0, replicate 2.
The mark [5] stands for this setting: Fig. 6d, H3_1-24K9me3 binding-associated mutants, 1.0 µM DIM2, 1.0 µM DNA duplex, 30 °C, 30 min, pH 8.0, replicate 3.

B1: DIM2LLR: DIM2 L134A/L139A/R1104A triple mutation (protein)
chain: MDSPDRSHGGMFIDVPAETMGFQEDYLDMFASVLSQGLAKEGDYAHHQPLPAGKEECLEPIAVATTITPSPDDPQLQLQLELEQQFQTESGLNGVDPAPAPESEDEADLPDGFSDESPDDDFVVQRSKHITVDAPVSTAINPRSTFQRIDENDNLVPPPQSTPERVAVEDLLKAAKAAGKNKEDYIEFELHDFNFYVNYAYHPQEMRPIQLVATKVLHDKYYFDGVLKYGNTKHYVTGMQVLELPVGNYGASLHSVKGQIWVRSKHNAKKEIYYLLKKPAFEYQRYYQPFLWIADLGKHVVDYCTRMVERKREVTLGCFKSDFIQWASKAHGKSKAFQNWRAQHPSDDFRTSVAANIGYIWKEINGVAGAKRAAGDQLFRELMIVKPGQYFRQEVPPGPVVTEGDRTVAATIVTPYIKECFGHMILGKVLRLAGEDAEKEKEVKLAKRLKIENKNATKADTKDDMKNDTATESLPTPLRSLPVQVLEATPIESDIVSIVSSDLPPSENNPPPLTNGSVKPKAKANPKPKPSTQPLHAAHVKYLSQELVNKIKVGDVISTPRDDSSNTDTKWKPTDTDDHRWFGLVQRVHTAKTKSSGRGLNSKSFDVIWFYRPEDTPCCAMKYKWRNELFLSNHCTCQEGHHARVKGNEVLAVHPVDWFGTPESNKGEFFVRQLYESEQRRWITLQKDHLTCYHNQPPKPPTAPYKPGDTVLATLSPSDKFSDPYEVVEYFTQGEKETAFVRLRKLLRRRKVDRQDAPANELVYTEDLVDVRAERIVGKCIMRCFRPDERVPSPYDRGGTGNMFFITHRQDHGRCVPLDTLPPTLRQGFNPLGNLGKPKLRGMDLYCGGGNFGRGLEEGGVVEMRWANDIWDKAIHTYMANTPDPNKTNPFLGSVDDLLRLALEGKFSDNVPRPGEVDFIAAGSPCPGFSLLTQDKKVLNQVKNQSLVASFASFVDFYRPKYGVLENVSGIVQTFVNRKQDVLSQLFCALVGMGYQAQLILGDAWAHGAPQSRERVFLYFAAPGLPLPDPPLPSHSHYRVKNRNIGFLCNGESYVQRSFIPTAFKFVSAGEGTADLPKIGDGKPDACVRFPDHRLASGITPYIAAQYACIPTHPYGMNFIKAWNNGNGVMSKSDRDLFPSEGKTRTSDASVGWKRLNPKTLFPTVTTTSNPSDARMGPGLHWDEDRPYTVQEMRRAQGYLDEEVLVGRTTDQWKLVGNSVSRHMALAIGLKFREAWLGTLYD
modifications: left off: His6, N-terminal, cleaved | MBP, N-terminal, cleaved
notes: DIM2 L134A/L139A/R1104A triple mutation
B1: the “DNA methylation activity of DIM2 (in words)” value in experiment [1] (1.0 µM DIM2, 30 °C, 30 min, pH 8.0) was “completely abolished the DNA methylation activity”. Further, the DNA methylation activity in experiment [1] (Fig. 2g, in the presence of HP1 (2 µM) and H3_1-24K9me3 peptide (1.0 µM), 1.0 µM DIM2, 30 °C, 30 min, pH 8.0, replicate 1) amounted to 0.066; in experiment [1] (Fig. 2g, in the presence of HP1 (2 µM) and H3_1-24K9me3 peptide (1.0 µM), 1.0 µM DIM2, 30 °C, 30 min, pH 8.0, replicate 2), 0.154; in experiment [1] (Fig. 2g, in the presence of HP1 (2 µM) and H3_1-24K9me3 peptide (1.0 µM), 1.0 µM DIM2, 30 °C, 30 min, pH 8.0, replicate 3) it was 0.275. Further, in the experiment with HP1, the “DIM2-HP1 complex formation (in words)” value was “complete disruption of the DIM2-HP1 complex”.

B2: DIM2W261A: DIM2 with W261A mutation to the RFTS domain (protein)
chain: MDSPDRSHGGMFIDVPAETMGFQEDYLDMFASVLSQGLAKEGDYAHHQPLPAGKEECLEPIAVATTITPSPDDPQLQLQLELEQQFQTESGLNGVDPAPAPESEDEADLPDGFSDESPDDDFVVQRSKHITVDLPVSTLINPRSTFQRIDENDNLVPPPQSTPERVAVEDLLKAAKAAGKNKEDYIEFELHDFNFYVNYAYHPQEMRPIQLVATKVLHDKYYFDGVLKYGNTKHYVTGMQVLELPVGNYGASLHSVKGQIAVRSKHNAKKEIYYLLKKPAFEYQRYYQPFLWIADLGKHVVDYCTRMVERKREVTLGCFKSDFIQWASKAHGKSKAFQNWRAQHPSDDFRTSVAANIGYIWKEINGVAGAKRAAGDQLFRELMIVKPGQYFRQEVPPGPVVTEGDRTVAATIVTPYIKECFGHMILGKVLRLAGEDAEKEKEVKLAKRLKIENKNATKADTKDDMKNDTATESLPTPLRSLPVQVLEATPIESDIVSIVSSDLPPSENNPPPLTNGSVKPKAKANPKPKPSTQPLHAAHVKYLSQELVNKIKVGDVISTPRDDSSNTDTKWKPTDTDDHRWFGLVQRVHTAKTKSSGRGLNSKSFDVIWFYRPEDTPCCAMKYKWRNELFLSNHCTCQEGHHARVKGNEVLAVHPVDWFGTPESNKGEFFVRQLYESEQRRWITLQKDHLTCYHNQPPKPPTAPYKPGDTVLATLSPSDKFSDPYEVVEYFTQGEKETAFVRLRKLLRRRKVDRQDAPANELVYTEDLVDVRAERIVGKCIMRCFRPDERVPSPYDRGGTGNMFFITHRQDHGRCVPLDTLPPTLRQGFNPLGNLGKPKLRGMDLYCGGGNFGRGLEEGGVVEMRWANDIWDKAIHTYMANTPDPNKTNPFLGSVDDLLRLALEGKFSDNVPRPGEVDFIAAGSPCPGFSLLTQDKKVLNQVKNQSLVASFASFVDFYRPKYGVLENVSGIVQTFVNRKQDVLSQLFCALVGMGYQAQLILGDAWAHGAPQSRERVFLYFAAPGLPLPDPPLPSHSHYRVKNRNIGFLCNGESYVQRSFIPTAFKFVSAGEGTADLPKIGDGKPDACVRFPDHRLASGITPYIRAQYACIPTHPYGMNFIKAWNNGNGVMSKSDRDLFPSEGKTRTSDASVGWKRLNPKTLFPTVTTTSNPSDARMGPGLHWDEDRPYTVQEMRRAQGYLDEEVLVGRTTDQWKLVGNSVSRHMALAIGLKFREAWLGTLYD
modifications: left off: His6, N-terminal, cleaved | MBP, N-terminal, cleaved
notes: DIM2 with W261A mutation to the RFTS domain
Take B2: the DNA methylation activity was found to be 3.359 in experiment [1] (setting [3]), 3.206 in experiment [1] (setting [4]) and 3.347 in experiment [1] (setting [5]). Besides, the “reduction of DNA methylation efficiency of DIM2 by mutation” value in experiment [1] is recorded as 4–5 fold. Also, the “DNA-binding affinity of DIM2 (in words)” value in experiment [2] is “modestly reduced the DNA-binding affinity”.

B3: DIM2W581A: DIM2 with W581A mutation to the BAH1 domain (protein)
chain: MDSPDRSHGGMFIDVPAETMGFQEDYLDMFASVLSQGLAKEGDYAHHQPLPAGKEECLEPIAVATTITPSPDDPQLQLQLELEQQFQTESGLNGVDPAPAPESEDEADLPDGFSDESPDDDFVVQRSKHITVDLPVSTLINPRSTFQRIDENDNLVPPPQSTPERVAVEDLLKAAKAAGKNKEDYIEFELHDFNFYVNYAYHPQEMRPIQLVATKVLHDKYYFDGVLKYGNTKHYVTGMQVLELPVGNYGASLHSVKGQIWVRSKHNAKKEIYYLLKKPAFEYQRYYQPFLWIADLGKHVVDYCTRMVERKREVTLGCFKSDFIQWASKAHGKSKAFQNWRAQHPSDDFRTSVAANIGYIWKEINGVAGAKRAAGDQLFRELMIVKPGQYFRQEVPPGPVVTEGDRTVAATIVTPYIKECFGHMILGKVLRLAGEDAEKEKEVKLAKRLKIENKNATKADTKDDMKNDTATESLPTPLRSLPVQVLEATPIESDIVSIVSSDLPPSENNPPPLTNGSVKPKAKANPKPKPSTQPLHAAHVKYLSQELVNKIKVGDVISTPRDDSSNTDTKWKPTDTDDHRAFGLVQRVHTAKTKSSGRGLNSKSFDVIWFYRPEDTPCCAMKYKWRNELFLSNHCTCQEGHHARVKGNEVLAVHPVDWFGTPESNKGEFFVRQLYESEQRRWITLQKDHLTCYHNQPPKPPTAPYKPGDTVLATLSPSDKFSDPYEVVEYFTQGEKETAFVRLRKLLRRRKVDRQDAPANELVYTEDLVDVRAERIVGKCIMRCFRPDERVPSPYDRGGTGNMFFITHRQDHGRCVPLDTLPPTLRQGFNPLGNLGKPKLRGMDLYCGGGNFGRGLEEGGVVEMRWANDIWDKAIHTYMANTPDPNKTNPFLGSVDDLLRLALEGKFSDNVPRPGEVDFIAAGSPCPGFSLLTQDKKVLNQVKNQSLVASFASFVDFYRPKYGVLENVSGIVQTFVNRKQDVLSQLFCALVGMGYQAQLILGDAWAHGAPQSRERVFLYFAAPGLPLPDPPLPSHSHYRVKNRNIGFLCNGESYVQRSFIPTAFKFVSAGEGTADLPKIGDGKPDACVRFPDHRLASGITPYIRAQYACIPTHPYGMNFIKAWNNGNGVMSKSDRDLFPSEGKTRTSDASVGWKRLNPKTLFPTVTTTSNPSDARMGPGLHWDEDRPYTVQEMRRAQGYLDEEVLVGRTTDQWKLVGNSVSRHMALAIGLKFREAWLGTLYD
modifications: left off: His6, N-terminal, cleaved | MBP, N-terminal, cleaved
notes: DIM2 with W581A mutation to the BAH1 domain
Take B3: the DNA methylation activity was 4.016 in experiment [1] (setting [3]), 4.128 in experiment [1] (setting [4]) and 4.356 in experiment [1] (setting [5]). Also, the “reduction of DNA methylation efficiency of DIM2 by mutation” value in experiment [1] is reported as 4–5 fold. Besides, the “DNA-binding affinity of DIM2 (in words)” value in experiment [2] is listed as “modestly reduced the DNA-binding affinity”.
